# Measurements: the RNAGym collection of RNA variant scans (doi:10.1021/acssynbio.7b00057)
# B1: Pistol ribozyme (parent)
# chain: GGGUCGUUGUUCCAUAAUCGCGUGGAUAUGGCACGCAAGUUUCUACCGGGCACCGUAAAUGUCCGACUGGAGCCGUUCGGGCGGCUAUAAACAGACCUCAGGCCCGAAGCGUGGCGGCACCUGCCGCCGGUGGUAAAAAAGAUCGGAAGAGCACACGUCU
# Variants of: B1
# Assay: aptazyme ON/OFF ratio, guanine; higher = stronger switching; co-transcriptional cleavage with and without guanine
row,Variant,aptazyme ON/OFF ratio
1,U8G U10C U11G C12G C13U,1.2
2,U8G U10C U11G C12G C13A,1.17
3,U8G U10C U11G C12G C13G,1.18
4,G9A U10A U11C C12U,1.13
5,G9A U10A U11C C12G,1.32
6,G9A U10A U11C C12A,1.65
7,U8G U10C U11G,1.75
8,U8G U10C U11C,1.19
9,U8G U10C U11A,1.89
10,U8G U10A U11A C12A C13A,1.19
11,U8G U10A U11A C12A C13G,1.11
12,U8G U10A U11A C12A C13U,1.13
13,U8G U10A U11C C12U C13A,1.2
14,U8G U10A U11C C12U C13G,1.28
15,U8G U10A U11C C12U C13U,1.14
16,U8G U10G U11G,1.45
17,U8G U10G U11A,1.26
18,U8G U10G U11C,1.05
19,U8G U10C U11G C12A C13A,1.16
20,U8G U10C U11G C12A C13U,1.2
21,U8G U10C U11G C12A C13G,1.13
22,U8G U10A U11G C13G,1.04
23,U8G U10A U11G C13A,1.08
24,U8G U10A U11G C13U,1.04

row,Variant,aptazyme ON/OFF ratio
1,U8G U10G U11G C12A C13U,1.18
2,U8G U10G U11G C12A C13A,1.08
3,U8G U10G U11G C12A C13G,1.05
4,G9A U10A U11A C12U,1.68
5,G9A U10A U11A C12A,1.66
6,G9A U10A U11A C12G,1.83
7,U8G U11G C12G C13A,1.08
8,U8G U11G C12G C13G,1.08
9,U8G U11G C12G C13U,1.2
10,U8G U10A U11C C13U,1.03
11,U8G U10A U11C C13A,1.03
12,U8G U10A U11C C13G,1.02
13,U8G U11C C12A C13A,1.23
14,U8G U11C C12A C13G,1.23
15,U8G U11C C12A C13U,1.14
16,U8G U10C U11A C12G C13A,1.07
17,U8G U10C U11A C12G C13U,1.27
18,U8G U10C U11A C12G C13G,1.09
19,U8G U10C U11A C13G,1.05
20,U8G U10C U11A C13U,1.22
21,U8G U10C U11A C13A,1.15
22,U8G U11G C12G,1.18
23,U8G U11G C12A,1.44
24,U8G U11G C12U,1.33

row,Variant,aptazyme ON/OFF ratio
1,U8G U10C U11C C12G C13G,1.09
2,U8G U10C U11C C12G C13A,1.1
3,U8G U10C U11C C12G C13U,1.15
4,U8G U10C U11A C12A C13U,1.24
5,U8G U10C U11A C12A C13G,1.11
6,U8G U10C U11A C12A C13A,1.16
7,G9A U10A U11A C12U C13A,1.3
8,G9A U10A U11A C12U C13U,1.57
9,G9A U10A U11A C12U C13G,1.3
10,U8G U10G U11C C12A,1.06
11,U8G U10G U11C C12G,1.11
12,U8G U10G U11C C12U,1.02
13,G9A C12A C13A,1.45
14,G9A C12A C13U,1.38
15,G9A C12A C13G,1.12
16,U8G U10C U11A C12A,1.39
17,U8G U10C U11A C12G,1.26
18,U8G U10C U11A C12U,1.28
19,U8G U10G U11G C13A,1.21
20,U8G U10G U11G C13G,1.25
21,U8G U10G U11G C13U,1.19
22,U8G U10C C12A C13U,1.14
23,U8G U10C C12A C13A,1.09
24,U8G U10C C12A C13G,1.07

row,Variant,aptazyme ON/OFF ratio
1,U8G U10A U11A C12A,1.12
2,U8G U10A U11A C12U,1.28
3,U8G U10A U11A C12G,1.14
4,G9A U10A U11C C12A C13U,1.41
5,G9A U10A U11C C12A C13A,1.38
6,G9A U10A U11C C12A C13G,1.23
7,U8G U11A C12A C13U,1.28
8,U8G U11A C12A C13G,1.14
9,U8G U11A C12A C13A,1.18
10,U8G U10G U11C C12A C13A,1.06
11,U8G U10G U11C C12A C13G,1.08
12,U8G U10G U11C C12A C13U,1.09
13,G9A U10A U11G,2.38
14,G9A U10A U11A,2.7
15,G9A U10A U11C,1.08
16,U8G U11G C12A C13A,1.13
17,U8G U11G C12A C13G,1.17
18,U8G U11G C12A C13U,1.21
19,U8G U10G C12G C13U,1.35
20,U8G U10G C12G C13G,1.14
21,U8G U10G C12G C13A,1.31
22,U8G U10G U11G C12G,1.07
23,U8G U10G U11G C12U,1.44
24,U8G U10G U11G C12A,1.09

row,Variant,aptazyme ON/OFF ratio
1,G9A U10A U11G C12A,1.02
2,G9A U10A U11G C12G,1.16
3,G9A U10A U11G C12U,1.42
4,U8G U11A C12G,1.1
5,U8G U11A C12A,1.45
6,U8G U11A C12U,1.46
7,U8G U10C,3.87
8,U8G U10A,1.15
9,U8G U10G,1.32
10,U8G U10C U11G C12U C13A,1.14
11,U8G U10C U11G C12U C13U,1.13
12,U8G U10C U11G C12U C13G,1.15
13,G9A C12G C13U,1.44
14,G9A C12G C13G,1.46
15,G9A C12G C13A,1.3
16,U8G G9U U11G,1.36
17,U8G U10C U11C C12U C13U,1.09
18,U8G U10C U11C C12U C13G,1.27
19,U8G U10C U11C C12U C13A,1.14
20,U8G U10G U11G C12G C13U,1.29
21,U8G U10G U11G C12G C13G,1.1
22,U8G U10G U11G C12G C13A,1.15
23,U8G U10G U11A C13A,1.16
24,U8G U10G U11A C13U,1.33

row,Variant,aptazyme ON/OFF ratio
1,U8G U10G U11A C13G,1.18
2,U8G U10A U11C,1.02
3,U8G U10A U11G,1.34
4,U8G U10A U11A,1.71
5,U8G U10A U11G C12A C13A,1.11
6,U8G U10A U11G C12A C13U,1.12
7,U8G U10A U11G C12A C13G,1.12
8,U8G U10A U11C C12G C13G,1.33
9,U8G U10A U11C C12G C13U,1.33
10,U8G U10A U11C C12G C13A,1.13
11,U8G U10C U11C C13U,1.04
12,U8G U10C U11C C13G,1.03
13,U8G U10C U11C C13A,1.03
14,U8G U11A C12U C13G,1.12
15,U8G U11A C12U C13A,1.18
16,U8G U11A C12U C13U,1.33
17,U8G U10A C12G C13A,1.16
18,U8G U10A C12G C13G,1.14
19,U8G U10A C12G C13U,1.28
20,U8G U10G U11C C12G C13U,1.13
21,U8G U10G U11C C12G C13A,1.11
22,U8G U10G U11C C12G C13G,1.1
23,U8G U11C C12G,1.3
24,U8G U11C C12U,1.26

row,Variant,aptazyme ON/OFF ratio
1,U8G U11C C12A,1.13
2,U8G G9U U11C C13U,1.08
3,G9A U10A U11A C12A C13A,1.4
4,G9A U10A U11A C12A C13G,1.25
5,G9A U10A U11A C12A C13U,1.97
6,U8G U10A U11G C12G C13G,1.14
7,U8G U10A U11G C12G C13A,1.31
8,U8G U10A U11G C12G C13U,1.5
9,U8G U11C C12U C13U,1.3
10,U8G U11C C12U C13A,1.33
11,U8G U11C C12U C13G,1.29
12,U8G G9U U11G C13G,1.04
13,U8G G9U U11G C13A,1.06
14,U8G G9U U11G C13U,1.05
15,G9A U10A C12U C13G,1.24
16,G9A U10A C12U C13U,1.4
17,G9A U10A C12U C13A,1.39
18,U8G G9U U11G C12U,1.27
19,U8G G9U U11G C12G,1.39
20,U8G G9U U11G C12A,1.32
21,G9A U10A U11G C12U C13A,1.34
22,G9A U10A U11G C12U C13U,1.22
23,G9A U10A U11G C12U C13G,1.28
